Measured values as given in article PMC8041205.

Assays:
BSA = experiment: SPR; settings: natural protein
[1] = molecular target: commercially available recombinant MyD88 (UniProt Q99836); experiment: ITC; 1 uM rTcpC in PBS in the titration pool, 0.1 uM UBE2D1 or rMyD88 in PBS in the sample pool; VP-ITC microcalorimeter
Sequence of commercially available recombinant MyD88 (Q99836 whole entry): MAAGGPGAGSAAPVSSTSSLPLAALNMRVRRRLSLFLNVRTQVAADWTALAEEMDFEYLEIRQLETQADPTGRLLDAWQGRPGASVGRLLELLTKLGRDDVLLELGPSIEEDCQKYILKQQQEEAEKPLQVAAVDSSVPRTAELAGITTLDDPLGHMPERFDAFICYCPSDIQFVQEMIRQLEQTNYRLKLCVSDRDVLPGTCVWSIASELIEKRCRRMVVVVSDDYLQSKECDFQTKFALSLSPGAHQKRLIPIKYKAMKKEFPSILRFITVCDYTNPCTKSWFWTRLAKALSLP

Sequence of recombinant TcpC (Toll/interleukin-1 receptor domain-containing protein encoded by E. coli) (from UniProt A0A0H2V8B5 1-307) (natural protein; other documents disagree on this pair) (A0A0H2V8B5 whole entry, the tested form may be a part): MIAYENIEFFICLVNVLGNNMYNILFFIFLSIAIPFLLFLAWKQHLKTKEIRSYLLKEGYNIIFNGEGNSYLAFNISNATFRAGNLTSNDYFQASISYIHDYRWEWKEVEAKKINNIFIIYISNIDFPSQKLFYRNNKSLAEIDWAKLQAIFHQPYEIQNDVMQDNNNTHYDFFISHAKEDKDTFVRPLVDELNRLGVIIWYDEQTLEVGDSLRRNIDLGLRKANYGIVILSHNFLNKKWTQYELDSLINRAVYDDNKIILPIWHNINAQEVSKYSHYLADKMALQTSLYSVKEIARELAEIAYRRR
Sequence of recombinant TcpC (Toll/interleukin-1 receptor domain-containing protein encoded by E. coli) (from UniProt A0A0H2V8B5 1-307) (A0A0H2V8B5 whole entry, the tested form may be a part): as above

Substance: recombinant TcpC (Toll/interleukin-1 receptor domain-containing protein encoded by E. coli) (from UniProt A0A0H2V8B5 1-307)
- Kd (BSA): > 10000 µM

Substance: recombinant TcpC (Toll/interleukin-1 receptor domain-containing protein encoded by E. coli) (from UniProt A0A0H2V8B5 1-307) (natural protein; other documents disagree on this pair)
- Kd [1]: 0.539 µM
